Assay results from article PMC3880866 (Nature structural & molecular biology, 2012).
Substitutions are numbered along the chain they refer to. Numbers in names are those of the source.

What was measured:
UbcH5B = UbcH5B (UniProt P62837 1-147); test: SPR
SEC = molecular target: the molecule itself; test: SEC
[1] = molecular target: UbcH5BS~Ub (UbcH5B C85S covalently ester-linked to the C-terminus of ubiquitin) (UniProt P62837;P0CG48, C85S); test: SPR
UbcH5BS D117A~Ub = UbcH5BS D117A~Ub (UniProt P62837;P0CG48, C85S | D117A); test: SPR

B1: RNF2(1–114)–BMI1(1–109) (complex)
chain 1: MSQAVQTNGTQPLSKTWELSLYELQRTPQEAITDGLEIVVSPRSLHSELMCPICLDMLKNTMTTKECLHRFCADCIITALRSGNKECPTCRKKLVSKRSLRPDPNFDALISKIY
chain 2: MHRTTRIKITELNPHLMCVLCGGYFIDATTIIECLHSFCKTCIVRYLETSKYCPICDVQVHKTRPLLNIRSDKTLQDIVYKLVPGLFKNEMKRRRDFYAAHPSADAANG
Question: With B1 as the binder, how does the Kd (UbcH5B) read?
Answer: Its Kd is 91 µM.

B2: BIRC7 I284A (as in size exclusion chromatography and ubiquitination assays) (enzyme)
chain: MGPKDSAKCLHRGPQPSHWAAGDGPTQERCGPRSLGSPVLGLDTCRAWDHVDGQILGQLRPLTEEEEEEGAGATLSRGPAFPGMGSEELRLASFYDWPLTAEVPPELLAAAGFFHTGHQDKVRCFFCYGGLQSWKRGDDPWTEHAKWFPSCQFLLRSKGRDFVHSVQETHSQLLGSWDPWEEPEDAAPVAPSVPASGYPELPTPRREVQSESAQEPGGVSPAEAQRAWWVLEPPGARDVEAQLRRLQEERTCKVCLDRAVSIVFVPCGHLVCAECAPGLQLCPACRAPVRSRVRTFLS
Question: Which “stoichiometry N” value (SEC) does the source give for B2 here?
Answer: Its value is 2.

B3: BIRC7 R286A (as in size exclusion chromatography and ubiquitination assays) (enzyme)
chain: B2 chain with A284I, R286A
Question: How did the “stoichiometry N” value (SEC) turn out when B3 was run?
Answer: The value was 2.

B4: BIRC7 F296H (as in size exclusion chromatography and ubiquitination assays) (enzyme)
chain: B2 chain with A284I, F296H
Question: With B4 as the binder, how does the “stoichiometry N” value (SEC) read?
Answer: The value was 2.

B5: GST-BIRC3(541–C) (domain or fragment)
chain: DLPVEEQLRRLQEERTCKVCMDKEVSIVFIPCGHLVVCKDCAPSLRKCPICRSTIKGTVRTFLS
Question: For B5, which Kd [1] is on record?
Answer: Its Kd is 5 µM.

B6: GST-BIRC7 full length (enzyme)
chain: B2 chain with A284I
Question: Which Kd (UbcH5BS D117A~Ub) does the source give for B6 here?
Answer: Its Kd is 191 µM.

Question: And the Kd [1]?
Answer: The Kd was 181 µM.

B7: GST-BIRC7(239–C) (domain or fragment)
chain: VEAQLRRLQEERTCKVCLDRAVSIVFVPCGHLVCAECAPGLQLCPICRAPVRSRVRTFLS
Question: With B7 as the binder, how does the Kd [1] read?
Answer: The Kd was 136 µM.

B8: MDM2(428–C)–MDMX(428–C) (complex)
chain 1: SSLPLNAIEPCVICQGRPKNGCIVHGKTGHLMACFTCAKKLKKRNKPCPVCRQPIQMIVLTYFP
chain 2: EDCQNLLKPCSLCEKRPRDGNIIHGRTGHLVTCFHCARRLKKAGASCPICKKEIQLVIKVFIA
Question: How did the Kd [1] turn out when B8 was run?
Answer: Its Kd is 130 µM.
